# Measurements from the supplement of paper PMC9112550, “Optimization of the antimicrobial peptide Bac7 by deep mutational scanning” (BMC Biology, 2022).
# Test system: Escherichia coli TOP10
# Assay: shrunken log2 fold change of peptide-encoding DNA abundance (4.5 h post-induction vs induction); higher = less antimicrobial activity (less host growth inhibition)
# Conditions: time post-induction: 4.5 h; library: site-saturation at positions 5, 18, 19, 20
# 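Also: peptides expressed intracellularly from a pBAD plasmid library in pooled LB shake-flask culture, induced with 0.3% L-arabinose, DNA abundance read by NGS, three biological replicates, DESeq2 with apeglm shrinkage.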
row,Sequence,shrunken log2 fold change
1,RRIRARPPRLPRPRPRPHWLPRP,0.339
2,RRIRLRPPRLPRPRPRPDEPPRP,-0.0538
3,RRIRGRPPRLPRPRPRPYFIPRP,-0.336
4,RRIRNRPPRLPRPRPRPALKPRP,0.108
5,RRIRERPPRLPRPRPRPYCMPRP,-1.06
6,RRIRLRPPRLPRPRPRPHAGPRP,0.168
7,RRIRYRPPRLPRPRPRPIVNPRP,-0.558
8,RRIRFRPPRLPRPRPRPCRFPRP,-0.607
9,RRIRNRPPRLPRPRPRPGTIPRP,-0.316
10,RRIRLRPPRLPRPRPRPNPQPRP,-0.2
11,RRIRVRPPRLPRPRPRPYMGPRP,-0.895
12,RRIRFRPPRLPRPRPRPQCFPRP,-0.0591
13,RRIRCRPPRLPRPRPRPMTEPRP,-0.123
14,RRIRVRPPRLPRPRPRPLTEPRP,-0.503
15,RRIRWRPPRLPRPRPRPKAWPRP,0.743
16,RRIRTRPPRLPRPRPRPCSTPRP,-0.11
17,RRIRTRPPRLPRPRPRPPYFPRP,0.202
18,RRIRRRPPRLPRPRPRPFYFPRP,0.116
19,RRIRMRPPRLPRPRPRPEEFPRP,0.0141
20,RRIRHRPPRLPRPRPRPKSDPRP,-0.255
21,RRIRLRPPRLPRPRPRPMCNPRP,0.107
22,RRIRTRPPRLPRPRPRPGYTPRP,0.0635
23,RRIRRRPPRLPRPRPRPNGIPRP,-0.0555
24,RRIRSRPPRLPRPRPRPNRKPRP,-0.596
25,RRIRMRPPRLPRPRPRPNQCPRP,-0.198

row,Sequence,shrunken log2 fold change
1,RRIRWRPPRLPRPRPRPVMYPRP,-0.0288
2,RRIRSRPPRLPRPRPRPPPQPRP,0.835
3,RRIRQRPPRLPRPRPRPRTQPRP,0.0198
4,RRIRKRPPRLPRPRPRPADLPRP,0.056
5,RRIRQRPPRLPRPRPRPFDLPRP,-0.318
6,RRIRPRPPRLPRPRPRPSNFPRP,-0.168
7,RRIRLRPPRLPRPRPRPFELPRP,-0.519
8,RRIRIRPPRLPRPRPRPVDAPRP,-0.0281
9,RRIRDRPPRLPRPRPRPLVVPRP,0.102
10,RRIRARPPRLPRPRPRPQPGPRP,0.563
11,RRIRFRPPRLPRPRPRPGMKPRP,-0.0551
12,RRIRRRPPRLPRPRPRPWTRPRP,-0.0224
13,RRIRTRPPRLPRPRPRPRWFPRP,0.196
14,RRIRGRPPRLPRPRPRPNAWPRP,0.728
15,RRIRMRPPRLPRPRPRPVIFPRP,-0.237
16,RRIRMRPPRLPRPRPRPVETPRP,-0.00114
17,RRIRFRPPRLPRPRPRPLAYPRP,-0.534
18,RRIRNRPPRLPRPRPRPLQGPRP,0.0149
19,RRIRARPPRLPRPRPRPVYTPRP,-0.159
20,RRIRIRPPRLPRPRPRPCIRPRP,-0.0379
21,RRIRIRPPRLPRPRPRPLKQPRP,0.0465
22,RRIRCRPPRLPRPRPRPDLDPRP,0.0676
23,RRIRCRPPRLPRPRPRPKHDPRP,-0.0567
24,RRIRWRPPRLPRPRPRPVELPRP,-0.00876
25,RRIRTRPPRLPRPRPRPRLDPRP,-0.0828

row,Sequence,shrunken log2 fold change
1,RRIRQRPPRLPRPRPRPYPEPRP,-0.0761
2,RRIRLRPPRLPRPRPRPKMCPRP,-0.0794
3,RRIRNRPPRLPRPRPRPSEKPRP,-0.0315
4,RRIRWRPPRLPRPRPRPCAAPRP,1.32
5,RRIRLRPPRLPRPRPRPNAAPRP,-0.0536
6,RRIRDRPPRLPRPRPRPYQRPRP,0.058
7,RRIRPRPPRLPRPRPRPGRPPRP,0.155
8,RRIRERPPRLPRPRPRPYVWPRP,-0.401
9,RRIRVRPPRLPRPRPRPDHEPRP,-0.0524
10,RRIRDRPPRLPRPRPRPCSEPRP,0.283
11,RRIRGRPPRLPRPRPRPTWTPRP,1.18
12,RRIRERPPRLPRPRPRPAWAPRP,0.0704
13,RRIRARPPRLPRPRPRPHNPPRP,0.0946
14,RRIRCRPPRLPRPRPRPCMTPRP,-0.114
15,RRIRPRPPRLPRPRPRPFAYPRP,-0.135
16,RRIRIRPPRLPRPRPRPCTFPRP,-0.212
17,RRIRPRPPRLPRPRPRPTQHPRP,0.262
18,RRIRHRPPRLPRPRPRPCCVPRP,-0.193
19,RRIRVRPPRLPRPRPRPQQHPRP,-0.0119
20,RRIRPRPPRLPRPRPRPWSCPRP,-0.165
21,RRIRPRPPRLPRPRPRPHPDPRP,-0.0791
22,RRIRVRPPRLPRPRPRPLWRPRP,0.293
23,RRIRWRPPRLPRPRPRPVISPRP,-0.0992
24,RRIRKRPPRLPRPRPRPNDDPRP,0.414
25,RRIRIRPPRLPRPRPRPVASPRP,-0.14

row,Sequence,shrunken log2 fold change
1,RRIRHRPPRLPRPRPRPGEAPRP,0.051
2,RRIRCRPPRLPRPRPRPVGCPRP,0.204
3,RRIRERPPRLPRPRPRPHNVPRP,-0.42
4,RRIRWRPPRLPRPRPRPEDNPRP,0.547
5,RRIRGRPPRLPRPRPRPPSDPRP,1.05
6,RRIRERPPRLPRPRPRPFYNPRP,-0.306
7,RRIRPRPPRLPRPRPRPANCPRP,0.0263
8,RRIRPRPPRLPRPRPRPWDQPRP,-0.0786
9,RRIRGRPPRLPRPRPRPAFFPRP,0.787
10,RRIRCRPPRLPRPRPRPKADPRP,-0.052
11,RRIRMRPPRLPRPRPRPLSDPRP,0.861
12,RRIRDRPPRLPRPRPRPSYVPRP,-0.206
13,RRIRYRPPRLPRPRPRPDTKPRP,-0.0212
14,RRIRARPPRLPRPRPRPATDPRP,1.53
15,RRIRNRPPRLPRPRPRPSLKPRP,-0.47
16,RRIRNRPPRLPRPRPRPDIQPRP,-0.0597
17,RRIRERPPRLPRPRPRPWIKPRP,-0.924
18,RRIRYRPPRLPRPRPRPPWDPRP,0.128
19,RRIRMRPPRLPRPRPRPQTMPRP,0.276
20,RRIRWRPPRLPRPRPRPQLAPRP,0.351
21,RRIRGRPPRLPRPRPRPWFRPRP,-0.0346
22,RRIRWRPPRLPRPRPRPFEGPRP,-0.0062
23,RRIRCRPPRLPRPRPRPDDFPRP,0.0333
24,RRIRERPPRLPRPRPRPKMRPRP,0.962
25,RRIRCRPPRLPRPRPRPDAMPRP,0.0677

row,Sequence,shrunken log2 fold change
1,RRIRLRPPRLPRPRPRPGSQPRP,0.0681
2,RRIRCRPPRLPRPRPRPKCHPRP,0.205
3,RRIRWRPPRLPRPRPRPILVPRP,0.0752
4,RRIRGRPPRLPRPRPRPCVTPRP,1.34
5,RRIRARPPRLPRPRPRPNYYPRP,-0.414
6,RRIRSRPPRLPRPRPRPHCLPRP,-0.0826
7,RRIRARPPRLPRPRPRPNQAPRP,-0.117
8,RRIRPRPPRLPRPRPRPNLRPRP,0.197
9,RRIRWRPPRLPRPRPRPFRDPRP,-0.196
10,RRIRQRPPRLPRPRPRPAKCPRP,0.0161
11,RRIRTRPPRLPRPRPRPTISPRP,-0.488
12,RRIRMRPPRLPRPRPRPWVCPRP,0.154
13,RRIRERPPRLPRPRPRPHSSPRP,-0.0464
14,RRIRNRPPRLPRPRPRPKTVPRP,0.0807
15,RRIRDRPPRLPRPRPRPMHIPRP,-0.11
16,RRIRSRPPRLPRPRPRPCNCPRP,0.0508
17,RRIRLRPPRLPRPRPRPCSCPRP,0.00383
18,RRIRGRPPRLPRPRPRPCTRPRP,0.0901
19,RRIRKRPPRLPRPRPRPYSCPRP,-0.0242
20,RRIRQRPPRLPRPRPRPRIWPRP,0.123
21,RRIRIRPPRLPRPRPRPYSFPRP,-0.307
22,RRIRDRPPRLPRPRPRPSICPRP,-0.0317
23,RRIRHRPPRLPRPRPRPICYPRP,-0.178
24,RRIRLRPPRLPRPRPRPMPNPRP,-0.0177
25,RRIRERPPRLPRPRPRPVSMPRP,-0.295

row,Sequence,shrunken log2 fold change
1,RRIRHRPPRLPRPRPRPGRCPRP,0.127
2,RRIRPRPPRLPRPRPRPPIGPRP,0.287
3,RRIRRRPPRLPRPRPRPIRGPRP,0.1
4,RRIRHRPPRLPRPRPRPVYMPRP,-0.2
5,RRIRWRPPRLPRPRPRPEHMPRP,-0.122
6,RRIRGRPPRLPRPRPRPGDMPRP,0.511
7,RRIRGRPPRLPRPRPRPYMGPRP,-0.00228
8,RRIRVRPPRLPRPRPRPYFNPRP,-0.729
9,RRIRRRPPRLPRPRPRPCAGPRP,0.357
10,RRIRSRPPRLPRPRPRPQDHPRP,-0.794
11,RRIRSRPPRLPRPRPRPTSKPRP,0.0753
12,RRIRVRPPRLPRPRPRPYYQPRP,-0.245
13,RRIRERPPRLPRPRPRPLFSPRP,-0.364
14,RRIRQRPPRLPRPRPRPYSPPRP,-0.13
15,RRIRYRPPRLPRPRPRPHDEPRP,-0.0568
16,RRIRWRPPRLPRPRPRPDWIPRP,-0.0204
17,RRIRMRPPRLPRPRPRPKDGPRP,-0.0156
18,RRIRCRPPRLPRPRPRPCHKPRP,-0.0857
19,RRIRPRPPRLPRPRPRPFLAPRP,0.0316
20,RRIRCRPPRLPRPRPRPQWIPRP,-0.692
21,RRIRNRPPRLPRPRPRPPPCPRP,0.756
22,RRIRTRPPRLPRPRPRPAFHPRP,0.0779
23,RRIRVRPPRLPRPRPRPGKNPRP,-0.22
24,RRIRSRPPRLPRPRPRPIACPRP,0.12
25,RRIRARPPRLPRPRPRPHSEPRP,-0.0859
